Measured values from the nanobody polyreactivity screen of Harvey et al. (2022).

Assay: yeast display, Sf9 membrane polyspecificity reagent, FACS + sequencing; frameworks hold sequencing errors
Summary of the method: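 In a synthetic yeast display library (Saccharomyces cerevisiae BJ5465), nanobody expression was induced with galactose for 36–48 hours. FACS gates were set low and high (top ~1%) using anti-HA fluorescence for expression and streptavidin fluorescence for binding of the Sf9 membrane reagent. Each polyreactivity label is drawn from the gate of origin.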

Row | Sequence | polyreactivity (PSR sort gate)
1 | QDQLVESGGGLVQAGGSLRLSCAASGRIFHFNAMGWYRQAPGKERELVAAITSSGGSTDYADSVKGRFTISRDTAKNTVYLQMNRLKPEDTADYYCAKRVDAYGWWGRRSGVLSDYWGQGTQVTVSS | low polyreactivity
2 | QDQLVESGGGLVQAGGSLRLSCAASGRIFKVYAMGRYRQAPGKERELVAAITRNTGSTYYADSVKGRFTISRDNAKNTVYLQMNSLKPEDTSVFYCAVDVRSGRAYDYWGQGTQVTVSS | high polyreactivity
3 | QDQLVESGGGLVQAGGSLRLSCAASGRIFPYNAMGWYRQAPGKERELVAGISRTGGSTYYADSVKGRFTISRDNAKNTVYLQMNSLKPEDTAVYYCAARPGAHPDRLDYWGQGTQVTVSS | low polyreactivity
4 | QDQLVESGGGLVQAGGSLRLSCAASGRIFVYNDMGWYIQAPGKERELVAAISSVGTTYYADSVKGRFTISRDNAKNTVYLQMNSLIPEDTAVYYCAVTRYQSPPRYYYWGQGTQVTVSS | low polyreactivity
5 | QDQLVESGGGLVQAGGSLRLSCAASGRILKYNAMGWYRQAPGKERELVAAISYRGGSTYYADSVKGRFTISRDNAMNTVYLQMNSLKPEDTAVYYCNAGGGILNGPLFDYWGQGTQVTVSS | low polyreactivity
6 | QDQLVESGGGLVQAGGSLRLSCAASGRNFKYYGMRRYRQAPVKERDLVAAISRGSSTNYADSVKGRFTISRDNAKKTVYLQMYSLKPEDTAVYYCAVSLRRGGSGYAYDNWGQGTQVTVSA | high polyreactivity
7 | QDQLVESGGGLVQAGGSLRLSCAASGRTCGYYTMGWYRQAPGKERELVATISSDGTTNYADSVKGRFTISRDNAKNTVYLQMNSLKQEDTAGYYCNADFRLQYYYRIYDYWGQGTQVTVSS | low polyreactivity
8 | QDQLVESGGGLVQAGGSLRLSCAASGRTFASYAMGWYRQAPGKERELVAAITSSGGRTYYADSVKGRFTISRDYAKNTVYLQMNSLKPEVTAVYYCAVRGTKGYGYWGQGTQVTVSS | high polyreactivity
9 | QDQLVESGGGLVQAGGSLRLSCAASGRTFGDKALGWYRQAPGKERELVAAISWSGGRTYYADSVKGRFTISRDYGKNTVYLQMNSLKPEDTAVYYCAARNNRYPLYNYWGQGTQVTVSS | low polyreactivity
10 | QDQLVESGGGLVQAGGSLRLSCAASGRTFGTNARGWYRQAPGKERELVAGINYSDGSTYYADSVKGRFTISRDNAKNTVYLQMNSLKPEVTAVYYCAADPGWAWWELYYWGQGTQVTVSS | low polyreactivity
11 | QDQLVESGGGLVQAGGSLRLSCAASGRTFIRNAMGWYRQAPGKERELVAAITNSGGSTYYADSVKGRFTISRDNAKNTVYLQMNSLNPEDTAVYDCNRVYRSHRPYTYPFSYDYWGQGTQVTVSS | high polyreactivity
12 | QDQLVESGGGLVQAGGSLRLSCAASGRTFKGYAMGWYRQAPGKERELVAAIDSDGSTSYADSVKGRFTISRDNAKNTVYLQMISLKPEDTAVYYCAAAGQRPYEKGDYWGQGTQVTVSS | low polyreactivity
13 | QDQLVESGGGLVQAGGSLRLSCAASGRTFPRNAMGWYRQAPGKERELVAAISSTGDSTYYADSVKGRFTISRDNAKNTVYLQMNSLKPEDTAVYYCHYPYDYWGQGTQVTVSS | low polyreactivity
14 | QDQLVESGGGLVQAGGSLRLSCAASGRTFYFYAMGWYRQAPGKERELVAAISWTGGITYYADSVKGRFTISRDNAKNTVYLQMNSLKPEDTAVYYCAKKYYKVHKFDYWGQGTQVTVSS | low polyreactivity
15 | QDQLVESGGGLVQAGGSLRLSCAASGRTFYYYTMGWDRQAPGKERELVAAISRRGGRTYYADSVKRRFTISRDNAKNTVYLQMTSLKPEDTAVYYCAADRDHVVDFDYWGQGTQVTVSS | high polyreactivity
16 | QDQLVESGGGLVQAGGSLRLSCAASGRTIVLNPMGWYRQAHGKERELVAAISSGGSTNYADSVKGRFTISRDNAKNTVYLQMNSLNPEDTAVYYCAGQDVNLYSAYYYWGQGTQVTVSS | low polyreactivity

Row | Sequence | polyreactivity (PSR sort gate)
17 | QDQLVESGGGLVQAGGSLRLSCAASGRTLGKYAMGWSRQAPGQERELVAAITQRGGITYYADSVQGRFTISRDNAKNTVYLQMNSLKPEDTAVYYCAASLYSYRSPYTFYYWGQGTQVTVSS | high polyreactivity
18 | QDQLVESGGGLVQAGGSLRLSCAASGRTLVGNAMGLYRQAHGKERELVAAISLSDDITYYADSVKGRFTISRDNAKKTFYLQMNSLKPEDTAVYYCAAVYPGDSDFLGSYEESDSWGQGTQVTVSS | low polyreactivity
19 | QDQLVESGGGLVQAGGSLRLSCAASGRTLVHYGMGRYRQAPRKERELVAVITSGGSTYYADSVKARFTISRDNAKNTVYLQMNSLKPEDTAVYYCAAYKERFYEEYGYWGQGTQLTVSS | low polyreactivity
20 | QDQLVESGGGLVQAGGSLRLSCAASGSIFEINAMGWYRQSPGKERELVAAITGSGGSTHYADSVKGRFTISRDNAKNTVYLQMNSLKPEDTAVYYCAAVPRYQYGYWGQGTQVTVSS | low polyreactivity
21 | QDQLVESGGGLVQAGGSLRLSCAASGSIFGRNTMGWYRQAPGKERELVAAISSSGGSTRYADSVKGRFTISRDNAKNTVYLQMNSLKPEDTAVYYCNAKRYGGRQASYNLGDYWGQGTEVTVSS | high polyreactivity
22 | QDQLVESGGGLVQAGGSLRLSCAASGSIFGVYAMGWYRQAPGKEGELVAAISWTDGTTYYADSVKGRFTISRDNAKNTVYLQMNSLKQEDTAVYYCAVTYPRVAKVMYYWGQGTQVNVSS | high polyreactivity
23 | QDQLVESGGGLVQAGGSLRLSCAASGSIFGVYAMGWYRQAPGKERELVAVISFNSGSTNYADSVKGRFTISRDNAKNTVYLQMNSLKPEDTAVYYCNSDAWHETQVSGYSWGQGTQVTVSS | low polyreactivity
24 | QDQLVESGGGLVQAGGSLRLSCAASGSIFKYNMGWYRQAPGKERELVAAISRGGSTYYADSVKGRFTISRDNAKNTVYLQMTRLKPEDTAVYYCNAATSRRFSGMNYCGQGTQVTVSS | high polyreactivity
25 | QDQLVESGGGLVQAGGSLRLSCAASGSIFPHNAKGSYRQAPGKERELVASITSRGGITYYADSVKGRFTISRDNAKNTVYLQMNSLKPEDTAVYYCAADTYTDGYDYWGQGTQVTVSS | low polyreactivity
26 | QDQLVESGGGLVQAGGSLRLSCAASGSIFRVYVMGWYRQAPGKERELVAAITSSDGSTYYADSVKGRFTISRDNAKNTVYLQMNSLKPEDTAVYYCNAEFYSPRVVVPRYWYPGDYWGQGTQVTVSS | low polyreactivity
27 | QDQLVESGGGLVQAGGSLRLSCAASGSIFSYYAMGWYRQAAGKERELVAAINDGGGSTYYADSVKGRFTISRDNAKNTVYLQMNSLKPEDTAVYYCAAEWSWGPYRYDYWGQGTQVTVSS | high polyreactivity
28 | QDQLVESGGGLVQAGGSLRLSCAASGSIFWVYVMGWYSQAPGKERELVAAITNGGSTDYADSVKGRFTISRDNAKNTVYLQLNSLKPEDTAVYYCAKRSPIWGRILITYDYWGQGTQVTVSS | low polyreactivity
29 | QDQLVESGGGLVQAGGSLRLSCAASGSIIDYYDMGWYRQAPGKEREFVAAINWSGGNTHYADSVKGRFTISRDNAKNTVYLQMNSLKPEDTAVYYCAVDVKIGTDFIGVVIPGDYWGQGTQVTVSS | low polyreactivity
30 | QDQLVESGGGLVQAGGSLRLSCAASGSIIGWYAMGWYRQARGKERELVAAITFSSVSTYYADSVKGRFTISRDNAKNTVYLQMNSLKPEDTAVYYCAAVVYYTFDYCGQGTQVTVSS | low polyreactivity
31 | QDQLVESGGGLVQAGGSLRLSCAASGSILAYNAMGWYRQAPGKERQLVAAIRLSGGSTYYADSVKGRFTISRDNAKNTVYLQMNSLKPEDTAVYYCARRYYRYDTRKYNYWGQGTQVSVSS | high polyreactivity
32 | QDQLVESGGGLVQAGGSLRLSCAASGSILRQYAMGWYRQAPGKERELVATITGDGSTNYADSVKGRFTISRDNAKNTVYLQMHSLKPEDTAVYYCAVIGYHYSAISPPSQTRQGYDYWGQGTQVTVSS | low polyreactivity
